Data reported in patent US20110070615A1 (published 2011).

B1: L16H16 (Fab, V domains shown)
VH: QVQLQESGPGLVKPSGTLSLTCAVSGGSISSSNWWSWVRQPPGKGLEWIGEIYHSGSTNYNPSLKSRVTISVDKSKNQFSLKLSSVTAADTAVYYCARWTGRTDAFDIWGQGTMVTVSS
VL: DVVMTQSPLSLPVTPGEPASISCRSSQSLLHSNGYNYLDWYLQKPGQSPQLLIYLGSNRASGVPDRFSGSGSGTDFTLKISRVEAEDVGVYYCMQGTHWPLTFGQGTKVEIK
B2: L18H18 (Fab, V domains shown)
VH: QVQLVESGGGVVRPGGSLRLSCAASGFTFSSYAMSWVRQAPGKGLEWVSTISGSGGSTYYADSVKGRFTISRDNSKNTLYLQMNSLRAEDTAVYYCAKERGSGWSLDNMDVWGQGTTVTVSS
VL: DIQLTQSPSSVSASVGDRVTITCRASQGISRWLAWYQQKPGKAPRLLIYAASGLQSGVPSRFSGSGSGTDFTLTISNLQPEDFATYYCQQASSFPITFGQGTRLETK
B3: L19H19 (Fab, V domains shown)
VH: QVQLVESGPGLVKPSGTLSLTCAVSGGSISSSNWWSWVRQPPGKGLEWIGEIYHSGSTNYNPSLKSRVTISVDKSKNQFSLKLSSVTAADTAVYYCARDSSGFYGMDVWGQGTTVTVSS
VL: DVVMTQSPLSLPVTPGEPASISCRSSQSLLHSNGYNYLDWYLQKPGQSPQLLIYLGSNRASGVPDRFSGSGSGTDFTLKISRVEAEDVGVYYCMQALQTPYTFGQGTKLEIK
B4: L20H20 (Fab, V domains shown)
VH: QVQLQESGPGLVKPSGTLSLTCAVSGGSISSSNWWSWVRQPPGKGLEWIGEIYHSGSTNYNPSLKSRVTISVDKSKNQFSLKLSSVTAADTAVYYCARSSSWYWNAFDIWGQGTMVTVSS
VL: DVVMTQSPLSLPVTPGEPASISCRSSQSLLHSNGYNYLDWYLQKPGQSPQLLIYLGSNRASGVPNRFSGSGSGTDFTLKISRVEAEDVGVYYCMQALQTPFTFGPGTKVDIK

Molecular target: T1, hu IGF-1R(ECD)-C3-muIgG1Fc (human; mouse, Glycosylated. About 60% of the preparation is cleaved at RKRR (chain pos 708-711) into disulfide-linked alpha and beta chains, 40% is uncleaved. Dimer through receptor and Fc disulfides.)
T1 construct: 60% of the purified protein was processed into α and β chains, 40% unprocessed; also called IGF-1R(ECD)-C3-muFc; IGF-1R-C3-muFc
Experiment: phage Fab ELISA, IGF-1R-C3-mFc coated at 5 µg/ml, anti-M13-HRP
Description: In 96-well 2-ml deep-well blocks, 480 μl/well 2×YT-CG broth was inoculated with 20 μl of overnight cultures of the individual clones, then incubated at 37° C., 300 rpm for 3 hours. To each well, 50 μl of 1:3 diluted M13KO7 helper phage were added to infect the cells. The block was incubated at 37° C. without shaking for 30 minutes, and then shaken gently for another 30 minutes at 150 rpm. The block was centrifuged at 3600 rpm for 20 minutes to pellet the infected cells. The cell pellet in each well was suspended into 480 μl of 2×YT-CK (2×YT broth containing 100 μg/ml carbenicillin and 40 μg/ml kanamycin), and incubated at 30° C. overnight for about 20 hours. The cell debris was separated by centrifugation at 3600 rpm for 20 minutes. The rescued phage supernatant was used in the phage ELISA to check for IGF-1R-specific, INSR-cross reactive, or mouse Fc binding of individual clones.
Three sets of Nunc MaxiSorb Immunoplates were coated with 100 μ/well of IGF-1R-C3-mFc at 5 μg/ml, INSR-mFc at 5 μg/ml, or mouse IgG1 (catalog #010-0103, Rockland, Gilbertsville, Pa.) at 2 μg/ml in PBS, respectively, at 4° C. overnight. The coated plates were washed 3× with […] of PBS. The washed plates were blocked with 300 μl/well 2% MPBS at room temperature for one hour. Meanwhile, rescued phages of individual clones were pre-blocked by mixing 170 μof rescued phage with 170 μl of 4% MPBS. The blocked plates were washed 5× with 300 μl/well TBST (TBS: 10 mM Tris-HCl, pH 7.5, 1 mM EDTA, 150 mM NaCl; Tween-20. 0.1%). 100 μl/well of pre-blocked phage dilutions were distributed to each set of coated plate, which were incubated at room temperature on a rocker for 90 minutes. The plates were washed 5× with 300 μl/well TBST. 100 μl/well of anti-M13-HRP in 2% MPBS (1:3000 dilution, catalog number 27-9421-01, Amersham Pharmacia Biotech) were distributed, and plates were incubated at room temperature on rocker for one hour. The plates were washed 5× with 300 μl/well TBST. 100 μl/well of the substrate 1-Step™ ABTS (Pierce Biotechnology, Rockford, Ill., catalog number 37615) were added. Plates were incubated for one hour. OD₄₀₅ was measured for signal detection.

Binder | binding result
B1 | binds
B2 | binds
B3 | binds
B4 | binds
